For test [1], the target named is T1, RPP21 (Pyrococcus furiosus, UniProt Q8U0H6).
T1 chain: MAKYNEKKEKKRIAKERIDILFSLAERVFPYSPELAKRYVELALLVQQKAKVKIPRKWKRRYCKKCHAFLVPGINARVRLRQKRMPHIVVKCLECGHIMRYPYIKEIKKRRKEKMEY
In words: ITC. On the technique in general: ITC needs no label: the signal is the heat of the interaction.

Test [2] addresses T1, RPP21. In words: ITC.

Read-outs that look alike come from different tables or passages of the source.

As a reminder, the Kd is a measure of binding affinity in units of concentration.

B1: RPP29 1-127 (protein)
chain: MWRNSEERENRTSGRSQGSYQEIIGRTWIFRGAHRGRVNKKNIVWHELIGLKVRVVNSTHPGYVGIEGYVIDETRNMLVIAGENKVWKVPKDVCIFEFETWDGTKIKISGEKLVGRPEMRLKKRWRK
Regarding B1, the Kd in test [1] and in test [2] was 250 nM throughout.

B2: RPP29 18-127 (protein)
chain: GSYQEIIGRTWIFRGAHRGRVNKKNIVWHELIGLKVRVVNSTHPGYVGIEGYVIDETRNMLVIAGENKVWKVPKDVCIFEFETWDGTKIKISGEKLVGRPEMRLKKRWRK
Regarding B2, the Kd in test [1] was found to be 230 nM.

These data come from publication PMC3143260 (2012).
